Starred links: 1 amine or outer side, 2 acyl side, 3 side chain; linkers in the order of their positions; H or OH if unused. Non-standard residues stand in square brackets, D forms with d. Groups on a side chain read outwards from the residue. No end group written: not given here. *: point of attachment. C20 diacid = O=C(O)CCCCCCCCCCCCCCCCCCC(=O)*; C18 diacid = O=C(O)CCCCCCCCCCCCCCCCC(=O)*; γGlu = O=C(O)[C@H](CCC(=O)[*:2])N[*:1]; AEEA = NCCOCCOCC(=O)O; Aib = CC(C)(N)C(=O)O
T1: anti-target CRF1R receptor (UniProt P34998 24-415, limits assumed)
T1 sequence (looked up): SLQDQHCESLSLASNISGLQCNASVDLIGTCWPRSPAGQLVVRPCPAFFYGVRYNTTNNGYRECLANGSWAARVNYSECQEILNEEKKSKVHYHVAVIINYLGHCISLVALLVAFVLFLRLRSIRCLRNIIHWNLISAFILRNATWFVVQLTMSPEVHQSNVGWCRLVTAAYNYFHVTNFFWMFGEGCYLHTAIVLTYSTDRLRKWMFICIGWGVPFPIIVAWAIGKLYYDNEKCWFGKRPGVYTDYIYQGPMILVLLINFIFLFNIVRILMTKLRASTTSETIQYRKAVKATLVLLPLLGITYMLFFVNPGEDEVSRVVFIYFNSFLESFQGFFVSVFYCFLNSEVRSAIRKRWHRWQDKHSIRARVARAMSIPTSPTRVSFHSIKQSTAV

B1: peptide of SEQ ID NO: 80 (peptide)
peptide: IVLSLDVPTKLK([AEEA-AEEA-γGlu-C20 diacid])QILLEQERQKKQREQAETN[Aib]QILAQV-NH2
modifications: N-terminus assumed
SMILES: CC[C@H](C)[C@H](N)C(=O)N[C@H](C(=O)N[C@@H](CC(C)C)C(=O)N[C@@H](CO)C(=O)N[C@@H](CC(C)C)C(=O)N[C@@H](CC(=O)O)C(=O)N[C@H](C(=O)N1CCC[C@H]1C(=O)N[C@H](C(=O)N[C@@H](CCCCN)C(=O)N[C@@H](CC(C)C)C(=O)N[C@@H](CCCCNC(=O)COCCOCCNC(=O)COCCOCCNC(=O)CC[C@H](NC(=O)CCCCCCCCCCCCCCCCCCC(=O)O)C(=O)O)C(=O)N[C@@H](CCC(N)=O)C(=O)N[C@H](C(=O)N[C@@H](CC(C)C)C(=O)N[C@@H](CC(C)C)C(=O)N[C@@H](CCC(=O)O)C(=O)N[C@@H](CCC(N)=O)C(=O)N[C@@H](CCC(=O)O)C(=O)N[C@@H](CCCNC(=N)N)C(=O)N[C@@H](CCC(N)=O)C(=O)N[C@@H](CCCCN)C(=O)N[C@@H](CCCCN)C(=O)N[C@@H](CCC(N)=O)C(=O)N[C@@H](CCCNC(=N)N)C(=O)N[C@@H](CCC(=O)O)C(=O)N[C@@H](CCC(N)=O)C(=O)N[C@@H](C)C(=O)N[C@@H](CCC(=O)O)C(=O)N[C@H](C(=O)N[C@@H](CC(N)=O)C(=O)NC(C)(C)C(=O)N[C@@H](CCC(N)=O)C(=O)N[C@H](C(=O)N[C@@H](CC(C)C)C(=O)N[C@@H](C)C(=O)N[C@@H](CCC(N)=O)C(=O)N[C@H](C(N)=O)C(C)C)[C@@H](C)CC)[C@@H](C)O)[C@@H](C)CC)[C@@H](C)O)C(C)C)C(C)C
B2: peptide of SEQ ID NO: 83 (peptide)
peptide: IVLSLD[dV]PIGLK([AEEA-AEEA-γGlu-C18 diacid])QILLKQERQKK[Aib]REQAETNKRILERV-NH2
modifications: N-terminus assumed
SMILES: CC[C@H](C)[C@H](N)C(=O)N[C@H](C(=O)N[C@@H](CC(C)C)C(=O)N[C@@H](CO)C(=O)N[C@@H](CC(C)C)C(=O)N[C@@H](CC(=O)O)C(=O)N[C@@H](C(=O)N1CCC[C@H]1C(=O)N[C@H](C(=O)NCC(=O)N[C@@H](CC(C)C)C(=O)N[C@@H](CCCCNC(=O)COCCOCCNC(=O)COCCOCCNC(=O)CC[C@H](NC(=O)CCCCCCCCCCCCCCCCC(=O)O)C(=O)O)C(=O)N[C@@H](CCC(N)=O)C(=O)N[C@H](C(=O)N[C@@H](CC(C)C)C(=O)N[C@@H](CC(C)C)C(=O)N[C@@H](CCCCN)C(=O)N[C@@H](CCC(N)=O)C(=O)N[C@@H](CCC(=O)O)C(=O)N[C@@H](CCCNC(=N)N)C(=O)N[C@@H](CCC(N)=O)C(=O)N[C@@H](CCCCN)C(=O)N[C@@H](CCCCN)C(=O)NC(C)(C)C(=O)N[C@@H](CCCNC(=N)N)C(=O)N[C@@H](CCC(=O)O)C(=O)N[C@@H](CCC(N)=O)C(=O)N[C@@H](C)C(=O)N[C@@H](CCC(=O)O)C(=O)N[C@H](C(=O)N[C@@H](CC(N)=O)C(=O)N[C@@H](CCCCN)C(=O)N[C@@H](CCCNC(=N)N)C(=O)N[C@H](C(=O)N[C@@H](CC(C)C)C(=O)N[C@@H](CCC(=O)O)C(=O)N[C@@H](CCCNC(=N)N)C(=O)N[C@H](C(N)=O)C(C)C)[C@@H](C)CC)[C@@H](C)O)[C@@H](C)CC)[C@@H](C)CC)C(C)C)C(C)C

Experiments:
rat CRF2R α receptor = rat CRF2R α receptor (rat, UniProt P47866 20-411); test: cell-based or functional assay
rat CRF2R α receptor, sequence (P47866 20-411): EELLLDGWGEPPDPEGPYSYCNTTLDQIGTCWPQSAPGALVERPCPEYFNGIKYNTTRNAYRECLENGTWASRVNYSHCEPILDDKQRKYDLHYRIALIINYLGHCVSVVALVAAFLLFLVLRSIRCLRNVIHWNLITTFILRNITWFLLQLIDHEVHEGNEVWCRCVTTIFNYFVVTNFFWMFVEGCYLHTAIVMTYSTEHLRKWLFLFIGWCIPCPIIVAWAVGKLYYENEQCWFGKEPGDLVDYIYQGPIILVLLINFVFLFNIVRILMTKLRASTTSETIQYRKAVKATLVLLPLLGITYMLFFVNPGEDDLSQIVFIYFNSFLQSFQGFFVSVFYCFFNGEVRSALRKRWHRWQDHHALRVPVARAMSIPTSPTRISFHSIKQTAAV

[1] = target: T1, anti-target CRF1R receptor; test: cell-based or functional assay

| Binder | EC50 [nM], 0% HSA (cAMP, A7R5 cells) (rat CRF2R α receptor) | EC50[nM] 0% HSA (cAMP, CRF1R-overexpression CHO cells) [1] | Emax (%) (cAMP, CRF1R-overexpression CHO cells) [1] |
| --- | --- | --- | --- |
| B1 | 5.2 nM | > 1000 nM | 12.7% |
| B2 | 1.83 nM | > 1000 nM | 7.51% |

Reference: patent US12679878B2, “CRF2 receptor agonists and their use in therapy” (SANOFI, priority 2020, dated 2026)
